Experimental data: publication PMC2782046 (The Journal of Biological Chemistry, 2009)
Read-outs that look alike come from different tables or passages of the source.

Key:
[1] = biological target: Human fibrillin-1 fragment PF2 (human) (UniProt P35555); test: ELISA
[2] = biological target: Recombinant human tropoelastin lacking domain 26A (human); test: ELISA
[3] = biological target: Full-length human fibulin-5 (residues 42–448) (human) (UniProt Q9UBX5); test: ELISA
[4] = biological target: Human fibrillin-1 N-terminal fragment PF1, encoded by exons 1–11 (residues 31–489) (human) (UniProt P35555); test: ELISA
Sequence of Human fibrillin-1 N-terminal fragment PF1, encoded by exons 1–11 (residues 31–489) (human) (P35555 31-489): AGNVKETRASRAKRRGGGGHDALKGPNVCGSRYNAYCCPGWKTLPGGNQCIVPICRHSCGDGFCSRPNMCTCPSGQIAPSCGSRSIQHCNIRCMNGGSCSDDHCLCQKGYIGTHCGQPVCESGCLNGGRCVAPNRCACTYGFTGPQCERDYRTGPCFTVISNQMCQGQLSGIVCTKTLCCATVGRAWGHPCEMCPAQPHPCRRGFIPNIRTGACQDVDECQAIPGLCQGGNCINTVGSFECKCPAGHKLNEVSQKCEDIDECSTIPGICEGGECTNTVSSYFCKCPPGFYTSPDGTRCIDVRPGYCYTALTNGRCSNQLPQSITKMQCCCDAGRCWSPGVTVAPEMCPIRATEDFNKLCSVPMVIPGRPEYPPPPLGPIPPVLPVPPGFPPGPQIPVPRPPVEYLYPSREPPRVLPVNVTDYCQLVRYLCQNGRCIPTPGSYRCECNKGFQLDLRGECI

[5] = biological target: Full-length human fibulin-5 (residues 42–448) (human) (UniProt Q9UBX5); test: ELISA; remark: listed apart in the source
[6] = biological target: Recombinant human tropoelastin lacking domain 26A (human); test: SPR
[7] = biological target: Recombinant human tropoelastin lacking domain 26A (human); test: ELISA; remark: listed apart in the source
[8] = biological target: PF1 variant with the Marfan mutation R62C (human, UniProt P35555 31-489, R62C); test: ELISA
Sequence of PF1 variant with the Marfan mutation R62C (P35555 31-489 R62C): as the sequence (P35555 31-489) above, with R32C counted along it

[9] = biological target: PF1 variant with the Marfan mutation T101A (human, UniProt P35555 31-489, T101A); test: ELISA
Sequence of PF1 variant with the Marfan mutation T101A (P35555 31-489 T101A): as the sequence (P35555 31-489) above, with T71A counted along it

[10] = biological target: PF1 variant with the Marfan mutation S115C (human, UniProt P35555 31-489, S115C); test: ELISA
Sequence of PF1 variant with the Marfan mutation S115C (P35555 31-489 S115C): as the sequence (P35555 31-489) above, with S85C counted along it

[11] = biological target: the molecule itself; test: SEC-MALS

Sequence of Human fibrillin-1 fragment PF2 (human) (P35555 45-2731): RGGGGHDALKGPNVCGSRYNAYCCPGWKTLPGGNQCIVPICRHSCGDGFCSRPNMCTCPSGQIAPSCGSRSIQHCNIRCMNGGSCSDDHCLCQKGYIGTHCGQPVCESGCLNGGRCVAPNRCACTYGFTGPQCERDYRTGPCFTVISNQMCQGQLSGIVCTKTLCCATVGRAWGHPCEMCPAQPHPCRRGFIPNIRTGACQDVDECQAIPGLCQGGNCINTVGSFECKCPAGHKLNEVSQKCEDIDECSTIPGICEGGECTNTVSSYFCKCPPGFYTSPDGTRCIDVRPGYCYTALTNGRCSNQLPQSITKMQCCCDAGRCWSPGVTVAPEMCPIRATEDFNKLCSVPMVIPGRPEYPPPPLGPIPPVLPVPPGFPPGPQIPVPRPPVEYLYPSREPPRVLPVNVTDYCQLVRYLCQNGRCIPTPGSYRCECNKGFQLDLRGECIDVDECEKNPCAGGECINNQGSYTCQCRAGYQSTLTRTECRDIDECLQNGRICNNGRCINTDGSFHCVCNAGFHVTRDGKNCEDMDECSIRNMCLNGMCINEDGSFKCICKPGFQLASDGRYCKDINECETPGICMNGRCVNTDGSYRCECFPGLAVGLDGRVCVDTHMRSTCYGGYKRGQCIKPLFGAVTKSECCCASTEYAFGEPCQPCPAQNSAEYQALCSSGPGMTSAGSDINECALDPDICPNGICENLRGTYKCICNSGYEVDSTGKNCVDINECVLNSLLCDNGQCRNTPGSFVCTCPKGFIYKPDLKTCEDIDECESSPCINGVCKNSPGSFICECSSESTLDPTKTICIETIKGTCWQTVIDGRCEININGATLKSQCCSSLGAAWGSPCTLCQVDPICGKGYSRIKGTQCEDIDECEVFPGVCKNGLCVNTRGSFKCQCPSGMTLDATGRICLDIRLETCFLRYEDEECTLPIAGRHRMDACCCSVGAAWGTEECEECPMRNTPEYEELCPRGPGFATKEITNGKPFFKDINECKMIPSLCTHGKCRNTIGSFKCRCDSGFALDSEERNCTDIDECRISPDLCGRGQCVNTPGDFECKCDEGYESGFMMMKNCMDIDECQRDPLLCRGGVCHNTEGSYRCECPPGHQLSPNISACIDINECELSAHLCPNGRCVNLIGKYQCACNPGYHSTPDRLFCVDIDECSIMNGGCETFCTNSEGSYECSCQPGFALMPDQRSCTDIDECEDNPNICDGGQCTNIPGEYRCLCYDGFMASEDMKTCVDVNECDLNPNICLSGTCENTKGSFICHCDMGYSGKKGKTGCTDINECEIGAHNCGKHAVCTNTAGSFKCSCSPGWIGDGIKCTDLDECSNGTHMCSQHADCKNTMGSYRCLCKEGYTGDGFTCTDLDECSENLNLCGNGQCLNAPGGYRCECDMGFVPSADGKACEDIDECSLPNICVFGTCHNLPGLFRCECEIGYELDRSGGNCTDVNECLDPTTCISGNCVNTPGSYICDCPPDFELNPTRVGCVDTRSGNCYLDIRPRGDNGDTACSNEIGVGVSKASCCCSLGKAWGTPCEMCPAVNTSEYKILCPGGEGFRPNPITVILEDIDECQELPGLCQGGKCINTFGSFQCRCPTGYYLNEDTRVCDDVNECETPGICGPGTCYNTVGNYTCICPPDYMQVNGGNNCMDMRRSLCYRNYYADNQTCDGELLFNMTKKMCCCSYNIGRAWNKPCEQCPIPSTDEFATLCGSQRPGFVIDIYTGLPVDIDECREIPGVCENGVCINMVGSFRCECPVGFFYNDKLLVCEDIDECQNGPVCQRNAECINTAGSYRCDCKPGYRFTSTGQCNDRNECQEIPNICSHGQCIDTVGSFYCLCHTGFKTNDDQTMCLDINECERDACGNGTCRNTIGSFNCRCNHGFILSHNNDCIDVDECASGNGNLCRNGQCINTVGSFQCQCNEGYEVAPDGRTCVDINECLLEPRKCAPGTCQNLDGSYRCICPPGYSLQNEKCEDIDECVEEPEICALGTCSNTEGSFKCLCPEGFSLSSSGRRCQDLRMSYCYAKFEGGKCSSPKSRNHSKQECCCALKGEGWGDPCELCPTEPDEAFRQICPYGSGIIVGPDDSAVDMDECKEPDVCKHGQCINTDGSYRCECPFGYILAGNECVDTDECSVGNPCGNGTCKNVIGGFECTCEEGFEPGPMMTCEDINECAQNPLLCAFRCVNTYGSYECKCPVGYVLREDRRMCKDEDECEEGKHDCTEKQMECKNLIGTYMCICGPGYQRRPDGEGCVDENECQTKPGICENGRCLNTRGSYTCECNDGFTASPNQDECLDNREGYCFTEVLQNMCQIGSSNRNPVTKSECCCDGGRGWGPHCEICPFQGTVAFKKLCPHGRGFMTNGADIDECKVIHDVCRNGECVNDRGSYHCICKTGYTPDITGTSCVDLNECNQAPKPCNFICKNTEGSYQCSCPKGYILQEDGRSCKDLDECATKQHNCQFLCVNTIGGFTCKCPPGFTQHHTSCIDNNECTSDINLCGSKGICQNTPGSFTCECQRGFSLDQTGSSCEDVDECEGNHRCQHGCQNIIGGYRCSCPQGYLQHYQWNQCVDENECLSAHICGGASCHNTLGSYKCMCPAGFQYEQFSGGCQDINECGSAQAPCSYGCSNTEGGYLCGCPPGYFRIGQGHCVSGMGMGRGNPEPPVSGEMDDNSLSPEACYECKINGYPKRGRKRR

## Full-length human fibulin-4 (residues 26–418) (from UniProt O95967 26-443) (natural protein)
[1]
  Kd: 194 nM
[2]
  Kd: 131 nM

## Human full-length lysyl oxidase (from UniProt P28300 22-417) (enzyme)
[3]
  Kd: 304 nM
[4]
  Kd: 26 nM
[2]
  Kd: 49 nM
[5]
  Kd: 338 nM

## Fibulin-5 domain pair F5-E4+5 (residues 207–287) (from UniProt Q9UBX5 207-287) (domain or fragment)
[2]
  Kd: 452 nM

## Full-length fibulin-5 with the cutis laxa mutation S227P (from UniProt Q9UBX5 42-448) (natural protein)
[6]
  Kd: 3420 nM
  koff: 0.0093 s⁻¹
  kon: 20000 M⁻¹ s⁻¹

## Full-length fibulin-5 with the cutis laxa mutation C217R (from UniProt Q9UBX5 42-448) (natural protein)
[6]
  Kd: 865 nM
  koff: 0.0046 s⁻¹
  kon: 8400 M⁻¹ s⁻¹

## Full-length human fibulin-5 (residues 42–448) (from UniProt Q9UBX5 42-448) (natural protein)
[6]
  Kd: 64 nM
  koff: 0.0013 s⁻¹
  kon: 44000 M⁻¹ s⁻¹

B1: Fibulin-5 domain pair F5-E1+2 (residues 42–167) (domain or fragment)
chain: DIDECRTIPEACRGDMMCVNQNGGYLCIPRTNPVYRGPYSNPYSTPYSGPYPAAAPPLSAPNYPTISRPLICRFGYQMDESNQCVDVDECATDSHQCNPTQICINTEGGYTCSCTDGYWLLEGQCL
modifications: biotinylated where it was the soluble ligand of a solid phase assay
[7]
  Kd: 332 nM
[8]
  binding result: binds
[9]
  binding result: binds
[10]
  binding result: binds

B2: Fibulin-5 domain pair F5-E6FC (residues 288–448) (domain or fragment)
chain: DINECEHRNHTCNLQQTCYNLQGGFKCIDPIRCEEPYLRISDNRCMCPAENPGCRDQPFTILYRDMDVVSGRSVPADIFQMQATTRYPGAYYIFQIKSGNEGREFYMRQTGPISATLVMTRPIKGPREIQLDLEMITVNTVINFRGSSVIRLRIYVSQYPF
modifications: biotinylated where it was the soluble ligand of a solid phase assay
[7]
  Kd: 965 nM
[8]
  binding result: binds
[9]
  binding result: binds
[10]
  binding result: binds

B3: Full-length human fibulin-4 (residues 26–418) (natural protein)
chain: SPQDSEEPDSYTECTDGYEWDPDSQHCRDVNECLTIPEACKGEMKCINHYGGYLCLPRSAAVINDLHGEGPPPPVPPAQHPNPCPPGYEPDDQDSCVDVDECAQALHDCRPSQDCHNLPGSYQCTCPDGYRKIGPECVDIDECRYRYCQHRCVNLPGSFRCQCEPGFQLGPNNRSCVDVNECDMGAPCEQRCFNSYGTFLCRCHQGYELHRDGFSCSDIDECSYSSYLCQYRCINEPGRFSCHCPQGYQLLATRLCQDIDECESGAHQCSEAQTCVNFHGGYRCVDTNRCVEPYIQVSENRCLCPASNPLCREQPSSIVHRYMTITSERSVPADVFQIQATSVYPGAYNAFQIRAGNSQGDFYIRQINNVSAMLVLARPVTGPREYVLDLEMVTMNSLMSYRASSVLRLTVFVGAYTF
modifications: biotinylated (sulfosuccinimidyl 2-(biotinamido)-ethyl-1,3-dithiopropionate) where it was the soluble ligand of a solid phase assay
[11]
  stoichiometry N: 2

B4: N-terminal four domains of fibulin-4 (residues 26–217) (domain or fragment)
chain: SPQDSEEPDSYTECTDGYEWDPDSQHCRDVNECLTIPEACKGEMKCINHYGGYLCLPRSAAVINDLHGEGPPPPVPPAQHPNPCPPGYEPDDQDSCVDVDECAQALHDCRPSQDCHNLPGSYQCTCPDGYRKIGPECVDIDECRYRYCQHRCVNLPGSFRCQCEPGFQLGPNNRSCVDVNECDMGAPCEQRCFNSYGTFLCRCHQGYELHRDGFSCS
modifications: biotinylated where it was the soluble ligand of a solid phase assay
[11]
  stoichiometry N: 2
